In patent US20190389941A1:
Numbering of substitutions follows the chain as printed. One block for each binder: values may come before it.

Target: complement proteins
Assay: cell-based or functional assay

CDC inhibition IC50 (anti-CD20-coated Will-2 cells plus serum): 10 µg/mL
B1: G1098, P0DOX5 218-449 (Fc fusion)
chain: EPKSCDKTHTCPPCPAPELLGGPSVFLFPPKPKDTLMISRTPEVTCVVVDVSHEDPEVKFNWYVDGVEVHNAKTKPREEQYNSAYRVVSVLTVLHQDWLNGKEYKCKVSNKALPAPIEKTISKAKGQPREPQVYTLPPSREEMTKNQVSLTCLVKGFYPSDIAVEWESNGQPENNYKTTPPVLDSDGSFFLYSKLTVDKSRWQQGNVFSCSVMHGALHNHYTQKYLSLSPGKERKCCVECPPCP

CDC inhibition IC50 (anti-CD20-coated Will-2 cells plus serum): 5 µg/mL
B2: G1126, P0DOX5 218-449 (Fc fusion)
chain: B1 chain with E130R
